Source: article PMC4834876

Molecular target: Taxol-stabilised microtubules of porcine brain tubulin (porcine) (UniProt P02550)
Assay: co-sedimentation

EB1 full-length (end-binding protein 1), wild type, sequence (Q15691 whole entry): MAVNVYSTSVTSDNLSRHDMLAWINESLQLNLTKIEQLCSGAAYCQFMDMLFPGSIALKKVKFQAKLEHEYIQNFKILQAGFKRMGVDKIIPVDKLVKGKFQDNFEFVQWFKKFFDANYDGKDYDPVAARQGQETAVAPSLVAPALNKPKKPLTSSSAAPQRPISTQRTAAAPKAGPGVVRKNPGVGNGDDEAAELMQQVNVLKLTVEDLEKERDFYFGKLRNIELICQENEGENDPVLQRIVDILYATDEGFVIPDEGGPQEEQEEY

percent bound: 50%
Substance: EB1 full-length (end-binding protein 1), wild type (from UniProt Q15691 1-268) (natural protein)
